B1: peptide compound SEQ ID NO: 17 (peptide)
peptide: Ac-[dK]NTWQR[Tyr(Me)″][1Nal]K(Ac)DNN-NH2
modifications: lactam 1-10
SMILES: COc1ccc(C[C@@H]2NC(=O)[C@H](CCCNC(=N)N)NC(=O)[C@H](CCC(N)=O)NC(=O)[C@H](Cc3c[nH]c4ccccc34)NC(=O)[C@H]([C@@H](C)O)NC(=O)[C@H](CC(N)=O)NC(=O)[C@H](NC(C)=O)CCCCNC(=O)C[C@@H](C(=O)N[C@@H](CC(N)=O)C(=O)N[C@@H](CC(N)=O)C(N)=O)NC(=O)[C@H](CCCCNC(C)=O)NC(=O)[C@H](Cc3cccc4ccccc34)NC2=O)cc1
notes: synthetic macrolactam
B2: peptide compound SEQ ID NO: 19 (peptide)
peptide: Ac-[dK]NTWQR[Tyr(Me)″][1Nal]QDNN-NH2
modifications: lactam 1-10
SMILES: COc1ccc(C[C@@H]2NC(=O)[C@H](CCCNC(=N)N)NC(=O)[C@H](CCC(N)=O)NC(=O)[C@H](Cc3c[nH]c4ccccc34)NC(=O)[C@H]([C@@H](C)O)NC(=O)[C@H](CC(N)=O)NC(=O)[C@H](NC(C)=O)CCCCNC(=O)C[C@@H](C(=O)N[C@@H](CC(N)=O)C(=O)N[C@@H](CC(N)=O)C(N)=O)NC(=O)[C@H](CCC(N)=O)NC(=O)[C@H](Cc3cccc4ccccc34)NC2=O)cc1
notes: synthetic macrolactam
B3: peptide compound SEQ ID NO: 30 (peptide)
peptide: Ac-[dK]NTWQR[Tyr(Me)″][2Nal]QDNN-NH2
modifications: lactam 1-10
SMILES: COc1ccc(C[C@@H]2NC(=O)[C@H](CCCNC(=N)N)NC(=O)[C@H](CCC(N)=O)NC(=O)[C@H](Cc3c[nH]c4ccccc34)NC(=O)[C@H]([C@@H](C)O)NC(=O)[C@H](CC(N)=O)NC(=O)[C@H](NC(C)=O)CCCCNC(=O)C[C@@H](C(=O)N[C@@H](CC(N)=O)C(=O)N[C@@H](CC(N)=O)C(N)=O)NC(=O)[C@H](CCC(N)=O)NC(=O)[C@H](Cc3ccc4ccccc4c3)NC2=O)cc1
notes: synthetic macrolactam
B4: peptide compound SEQ ID NO: 14 (peptide)
peptide: Ac-[dK]NTWQRY[1Nal][Aib]DNN-NH2
modifications: lactam 1-10
SMILES: CC(=O)N[C@@H]1CCCCNC(=O)C[C@@H](C(=O)N[C@@H](CC(N)=O)C(=O)N[C@@H](CC(N)=O)C(N)=O)NC(=O)C(C)(C)NC(=O)[C@H](Cc2cccc3ccccc23)NC(=O)[C@H](Cc2ccc(O)cc2)NC(=O)[C@H](CCCNC(=N)N)NC(=O)[C@H](CCC(N)=O)NC(=O)[C@H](Cc2c[nH]c3ccccc23)NC(=O)[C@H]([C@@H](C)O)NC(=O)[C@H](CC(N)=O)NC1=O
notes: synthetic macrolactam
B5: peptide compound SEQ ID NO: 38 (peptide)
peptide: Ac-[Orn]NTWQR[AEF][2Nal][Aib]ENN-NH2
modifications: lactam 1-10
SMILES: CC(=O)N[C@H]1CCCNC(=O)CC[C@@H](C(=O)N[C@@H](CC(N)=O)C(=O)N[C@@H](CC(N)=O)C(N)=O)NC(=O)C(C)(C)NC(=O)[C@H](Cc2ccc3ccccc3c2)NC(=O)[C@H](Cc2ccc(OCCN)cc2)NC(=O)[C@H](CCCNC(=N)N)NC(=O)[C@H](CCC(N)=O)NC(=O)[C@H](Cc2c[nH]c3ccccc23)NC(=O)[C@H]([C@@H](C)O)NC(=O)[C@H](CC(N)=O)NC1=O
B6: peptide compound SEQ ID NO: 11 (peptide)
peptide: Ac-[dD]NTWQR[Tyr(Me)][1Nal][Aib]KNN-NH2
modifications: lactam 1-10
SMILES: COc1ccc(C[C@@H]2NC(=O)[C@H](CCCNC(=N)N)NC(=O)[C@H](CCC(N)=O)NC(=O)[C@H](Cc3c[nH]c4ccccc34)NC(=O)[C@H]([C@@H](C)O)NC(=O)[C@H](CC(N)=O)NC(=O)[C@H](NC(C)=O)CC(=O)NCCCC[C@@H](C(=O)N[C@@H](CC(N)=O)C(=O)N[C@@H](CC(N)=O)C(N)=O)NC(=O)C(C)(C)NC(=O)[C@H](Cc3cccc4ccccc34)NC2=O)cc1
B7: peptide compound SEQ ID NO: 18 (peptide)
peptide: Ac-[dK]NTWQR[Tyr(Me)][1Nal][Cit]DNN-NH2
modifications: lactam 1-10
SMILES: COc1ccc(C[C@@H]2NC(=O)[C@H](CCCNC(=N)N)NC(=O)[C@H](CCC(N)=O)NC(=O)[C@H](Cc3c[nH]c4ccccc34)NC(=O)[C@H]([C@@H](C)O)NC(=O)[C@H](CC(N)=O)NC(=O)[C@H](NC(C)=O)CCCCNC(=O)C[C@@H](C(=O)N[C@@H](CC(N)=O)C(=O)N[C@@H](CC(N)=O)C(N)=O)NC(=O)[C@H](CCCNC(N)=O)NC(=O)[C@H](Cc3cccc4ccccc34)NC2=O)cc1
B8: peptide compound SEQ ID NO: 26 (peptide)
peptide: Ac-[dK]NTWQR[Tyr(Me)][2Nal][Aib]DN-NH2
modifications: lactam 1-10
SMILES: COc1ccc(C[C@@H]2NC(=O)[C@H](CCCNC(=N)N)NC(=O)[C@H](CCC(N)=O)NC(=O)[C@H](Cc3c[nH]c4ccccc34)NC(=O)[C@H]([C@@H](C)O)NC(=O)[C@H](CC(N)=O)NC(=O)[C@H](NC(C)=O)CCCCNC(=O)C[C@@H](C(=O)N[C@@H](CC(N)=O)C(N)=O)NC(=O)C(C)(C)NC(=O)[C@H](Cc3ccc4ccccc4c3)NC2=O)cc1
B9: peptide compound SEQ ID NO: 16 (peptide)
peptide: Ac-[dK]NTWQR[Tyr(Me)][1Nal][Aib]ENN-NH2
modifications: lactam 1-10
SMILES: COc1ccc(C[C@@H]2NC(=O)[C@H](CCCNC(=N)N)NC(=O)[C@H](CCC(N)=O)NC(=O)[C@H](Cc3c[nH]c4ccccc34)NC(=O)[C@H]([C@@H](C)O)NC(=O)[C@H](CC(N)=O)NC(=O)[C@H](NC(C)=O)CCCCNC(=O)CC[C@@H](C(=O)N[C@@H](CC(N)=O)C(=O)N[C@@H](CC(N)=O)C(N)=O)NC(=O)C(C)(C)NC(=O)[C@H](Cc3cccc4ccccc34)NC2=O)cc1
B10: peptide compound SEQ ID NO: 47 (peptide)
peptide: Ac-[dK]NTWQA[Tyr(Me)″][2Nal]RDNN-NH2
modifications: lactam 1-10
SMILES: COc1ccc(C[C@@H]2NC(=O)[C@H](C)NC(=O)[C@H](CCC(N)=O)NC(=O)[C@H](Cc3c[nH]c4ccccc34)NC(=O)[C@H]([C@@H](C)O)NC(=O)[C@H](CC(N)=O)NC(=O)[C@H](NC(C)=O)CCCCNC(=O)C[C@@H](C(=O)N[C@@H](CC(N)=O)C(=O)N[C@@H](CC(N)=O)C(N)=O)NC(=O)[C@H](CCCNC(=N)N)NC(=O)[C@H](Cc3ccc4ccccc4c3)NC2=O)cc1
notes: synthetic macrolactam
B11: peptide compound SEQ ID NO: 51 (peptide)
peptide: Ac-[dK]NTWQA[Phe(4-OMe)][2Nal][Thp]DNN-NH2
modifications: lactam 1-10
SMILES: COc1ccc(C[C@@H]2NC(=O)[C@H](C)NC(=O)[C@H](CCC(N)=O)NC(=O)[C@H](Cc3c[nH]c4ccccc34)NC(=O)[C@H]([C@@H](C)O)NC(=O)[C@H](CC(N)=O)NC(=O)[C@H](NC(C)=O)CCCCNC(=O)C[C@@H](C(=O)N[C@@H](CC(N)=O)C(=O)N[C@@H](CC(N)=O)C(N)=O)NC(=O)C3(CCOCC3)NC(=O)[C@H](Cc3ccc4ccccc4c3)NC2=O)cc1
B12: peptide compound SEQ ID NO: 40 (peptide)
peptide: [Ahx]NTWQ[Agb][Phe(4-OMe)][2Nal][Aib]ENN-NH2
modifications: lactam N-10
SMILES: COc1ccc(C[C@@H]2NC(=O)[C@H](CCNC(=N)N)NC(=O)[C@H](CCC(N)=O)NC(=O)[C@H](Cc3c[nH]c4ccccc34)NC(=O)[C@H]([C@@H](C)O)NC(=O)[C@H](CC(N)=O)NC(=O)CCCCCNC(=O)CC[C@@H](C(=O)N[C@@H](CC(N)=O)C(=O)N[C@@H](CC(N)=O)C(N)=O)NC(=O)C(C)(C)NC(=O)[C@H](Cc3ccc4ccccc4c3)NC2=O)cc1

The values that follow come from patent publication US20260250322A1, “NEW PEPTIDES AS SELECTIVE IL-23 RECEPTOR INHIBITORS” (SANOFI, priority 2023, published 2026).

Numbered stars: 1 amine (or outer) side, 2 acyl side, 3 side chain; on linkers, the order of the positions; unused ones are H or OH. Bridge positions count the residues as written; N and C are the ends. Square brackets hold non-standard residues; d marks the D form. Primed or numbered codes have the meaning given here. Phe(4-OMe) = Yme, 4-methoxy-L-phenylalanine (O-methyl-tyrosine), COc1ccc(C[C@H](N[*:1])C(=O)[*:2])cc1; Tyr(Me) = Yme = 4-methoxy-L-phenylalanine (O-methyl-tyrosine), COc1ccc(C[C@H](N[*:1])C(=O)[*:2])cc1; Tyr(Me)″ = O-methyl-tyrosine (4-methoxy-phenylalanine), COc1ccc(C[C@H](N[*:1])C(=O)[*:2])cc1; 1Nal = N[C@@H](Cc1cccc2ccccc12)C(=O)O; 2Nal = N[C@@H](Cc1ccc2ccccc2c1)C(=O)O; AEF = NCCOc1ccc(C[C@H](N)C(=O)O)cc1; Cit = NC(=O)NCCC[C@H](N)C(=O)O; Agb = N=C(N)NCC[C@H](N)C(=O)O; Orn = NCCC[C@H](N)C(=O)O; Thp = NC1(C(=O)O)CCOCC1; Aib = CC(C)(N)C(=O)O; Ahx = NCCCCCC(=O)O

One experiment deals with T1, IL-23 receptor on the surface of HEK-Blue IL-23 cells (UniProt Q5VWK5 24-629, limits assumed).
T1 sequence (looked up): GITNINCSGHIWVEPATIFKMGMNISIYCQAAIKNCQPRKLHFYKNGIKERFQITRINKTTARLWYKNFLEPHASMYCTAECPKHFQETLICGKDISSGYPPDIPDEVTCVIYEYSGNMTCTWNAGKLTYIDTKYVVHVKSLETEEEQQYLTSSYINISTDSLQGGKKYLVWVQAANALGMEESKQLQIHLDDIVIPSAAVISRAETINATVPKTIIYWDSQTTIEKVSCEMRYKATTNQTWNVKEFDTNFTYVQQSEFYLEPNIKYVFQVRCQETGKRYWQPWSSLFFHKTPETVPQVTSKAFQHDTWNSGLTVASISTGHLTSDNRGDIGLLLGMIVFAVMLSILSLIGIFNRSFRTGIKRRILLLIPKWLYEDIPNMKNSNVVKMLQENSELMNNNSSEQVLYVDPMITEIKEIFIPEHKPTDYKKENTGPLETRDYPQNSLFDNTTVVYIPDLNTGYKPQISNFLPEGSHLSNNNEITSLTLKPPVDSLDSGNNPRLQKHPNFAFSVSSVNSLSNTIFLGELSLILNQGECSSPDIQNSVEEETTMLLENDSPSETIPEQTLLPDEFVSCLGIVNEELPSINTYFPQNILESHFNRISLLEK
The experiment is described as follows: cell-based or functional assay.
As to B1, the “Inhibition of IL-23 induced pSTAT3 (IC50 nM)” value (shortened to “Inhibition”) stood at 5650 nM.
Take B2: the “Inhibition” value was 9600 nM.
The same measure, in the same setting: with B3 the figure was 6050 nM; with B4, 1380 nM.
B5: the “Inhibition” value was 1570 nM.
As to B6, the “Inhibition” value stood at 9280 nM.
For the molecule B7, the “Inhibition” value was 10000 nM.
Turning to B8, the “Inhibition” value was found to be 8110 nM.
On to B9, for which the “Inhibition” value amounted to 8010 nM.

The next experiment addresses T2, recombinant human IL-23R-Fc chimera (human, UniProt Q5VWK5 24-353, limits assumed).
T2 construct: Recombinant reagent; also called interleukin-23 receptor; not shown: detected with goat anti-hu-IgG1-HRP antibody
T2 sequence (looked up): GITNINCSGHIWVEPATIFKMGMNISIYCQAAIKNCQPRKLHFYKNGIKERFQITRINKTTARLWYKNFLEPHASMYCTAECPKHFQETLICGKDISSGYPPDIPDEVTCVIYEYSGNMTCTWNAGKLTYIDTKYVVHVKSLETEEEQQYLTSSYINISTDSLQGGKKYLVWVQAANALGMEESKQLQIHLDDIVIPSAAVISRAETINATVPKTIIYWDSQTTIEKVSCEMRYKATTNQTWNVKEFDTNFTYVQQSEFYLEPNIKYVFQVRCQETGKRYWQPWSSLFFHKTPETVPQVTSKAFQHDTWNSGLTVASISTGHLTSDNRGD
Put plainly: competition ELISA: coated human IL-23, IL-23R-Fc 0.1 ug/ml, peptide titrated. On the procedure: Antagonism of peptide compounds for human interleukin-23 receptor inhibitors, was determined by an ELISA assay.
A 384-well plate was coated with 50 μl/well of human IL-23 at a final concentration of 1 μg/ml and incubated overnight at 4° C. The wells were washed 3 times with 80 μl wash buffer and blocked with 80 μl blocking buffer for 60 minutes at room temperature and washed again. 20 μl of serially diluted test peptides was added to each well and subsequently 20 μl of recombinant human IL-23R-Fc chimera at final concentration of 0.1 μg/ml. The plate was incubated for 60 minutes at room temperature. After the wells were washed, bound IL-23R-Fc was detected with goat anti-hu-lgG1-HRP antibody. Signals were visualized with QuantaBlu Fluorogenic Peroxidase Substrate.
With B1, the IC50 came out at 7.87 nM.
B2: the IC50 came to 15.6 nM.
As for B3, the IC50 amounted to 9.64 nM.
In the case of B10, the half-inhibitory concentration (IC50) stood at 1.34 nM.
For B4, the IC50 came out at 5.42 nM.
B11: the IC50 stood at 0.78 nM.
With B5, the IC50 turned out to be 12.5 nM.
With B6, the half-inhibitory concentration (IC50) was determined as 18.9 nM.
Take B7: the IC50 came out at 11.8 nM.
Regarding B12, the half-inhibitory concentration (IC50) turned out to be 3.11 nM.
B8: the IC50 was found to be 18.8 nM.
For the molecule B9, the IC50 was found to be 5.74 nM.
